Where a chain is given by its changes, count along the chain named.

B1: NRC3_random_hg19_172_o1 (dsDNA)
DNA 1: GCCAGTACTGTTGCTAGAACTACAACCTGTATGCTGGCGATTGACAGCGTAGAATGAAGG
DNA 2: CCTTCATTCTACGCTGTCAATCGCCAGCATACAGGTTGTAGTTCTAGCAACAGTACTGGC
B2: NRC3_random_hg19_200_o1 (dsDNA)
DNA 1: GCGCAGGAGAATCAGGCAGGGAGGTTGCAGTGAGCCGCGATTGACAGCGTAGAATGAAGG
DNA 2: CCTTCATTCTACGCTGTCAATCGCGGCTCACTGCAACCTCCCTGCCTGATTCTCCTGCGC
B3: NRC3_random_hg19_188_o1 (dsDNA)
DNA 1: GCGCTAGGATTACAGGCACAAGCCACCGTGCCCAGCGCGATTGACAGCGTAGAATGAAGG
DNA 2: CCTTCATTCTACGCTGTCAATCGCGCTGGGCACGGTGGCTTGTGCCTGTAATCCTAGCGC
B4: NRC3_random_hg19_99_o1 (dsDNA)
DNA 1: GCTGTTCTTACTGAGGCGTTTGCTGCCTAGCTCCCTGCGATTGACAGCGTAGAATGAAGG
DNA 2: CCTTCATTCTACGCTGTCAATCGCAGGGAGCTAGGCAGCAAACGCCTCAGTAAGAACAGC
B5: NRC3_random_hg19_483_o1 (dsDNA)
DNA 1: GCGAATGGAATAGAGTGGAATGCAGTGGAATGGAAAGCGATTGACAGCGTAGAATGAAGG
DNA 2: CCTTCATTCTACGCTGTCAATCGCTTTCCATTCCACTGCATTCCACTCTATTCCATTCGC
B6: NRC3_random_hg19_330_o1 (dsDNA)
DNA 1: GCAGACTTTGCATCCTGCTGAGAACTGCTCTGAGAGGCGATTGACAGCGTAGAATGAAGG
DNA 2: CCTTCATTCTACGCTGTCAATCGCCTCTCAGAGCAGTTCTCAGCAGGATGCAAAGTCTGC
B7: NRC3_random_hg19_473_o1 (dsDNA)
DNA 1: GCGCTACTCGGGAGGCTGAGGCAGGAGAATGGTGTGGCGATTGACAGCGTAGAATGAAGG
DNA 2: CCTTCATTCTACGCTGTCAATCGCCACACCATTCTCCTGCCTCAGCCTCCCGAGTAGCGC
B8: NRC3_random_hg19_326_o1 (dsDNA)
DNA 1: GCATCAGGTCTGCACCTGCAGATGGCGAGGGTTGGCGCGATTGACAGCGTAGAATGAAGG
DNA 2: CCTTCATTCTACGCTGTCAATCGCGCCAACCCTCGCCATCTGCAGGTGCAGACCTGATGC
B9: NRC3_wobSeed122_DR5_T9G_o1 (dsDNA)
DNA 1: GCGCTAGTGGGTCAGTAAAAGGTCACACACCGGTCGGCGATTGACAGCGTAGAATGAAGG
DNA 2: CCTTCATTCTACGCTGTCAATCGCCGACCGGTGTGTGACCTTTTACTGACCCACTAGCGC
B10: NRC3_wobSeed34_DR1_T4G_o1 (dsDNA)
DNA 1: GCAGCGAAAGGTCGAAGGTGAGTATACCCACCCGAAGCGATTGACAGCGTAGAATGAAGG
DNA 2: CCTTCATTCTACGCTGTCAATCGCTTCGGGTGGGTATACTCACCTTCGACCTTTCGCTGC
B11: NRC3_wobSeed136_DR5_C23G_o1 (dsDNA)
DNA 1: GCTAGCCTAGGTCATTCAGGGGGCAGTATAGAAAGCGCGATTGACAGCGTAGAATGAAGG
DNA 2: CCTTCATTCTACGCTGTCAATCGCGCTTTCTATACTGCCCCCTGAATGACCTAGGCTAGC
B12: NRC3_wobSeed136_DR5_T8A_o1 (dsDNA)
DNA 1: B11 DNA 1 with T8A, G23C
DNA 2: B11 DNA 2 with C38G, A53T
B13: NRC3_wobSeed134_DR5_T20A_o1 (dsDNA)
DNA 1: GCGCTGCTAGGTCAACTGAAGGTCAGCTAAAGCTCGGCGATTGACAGCGTAGAATGAAGG
DNA 2: CCTTCATTCTACGCTGTCAATCGCCGAGCTTTAGCTGACCTTCAGTTGACCTAGCAGCGC
B14: NRC3_wobSeed134_DR5_C24G_o1 (dsDNA)
DNA 1: B13 DNA 1 with A20T, C24G
DNA 2: B13 DNA 2 with G37C, T41A
B15: NRC3_wobSeed134_DR5_T20G_o1 (dsDNA)
DNA 1: B13 DNA 1 with A20G
DNA 2: B13 DNA 2 with T41C
B16: NRC3_wobSeed49_DR2_G25C_o1 (dsDNA)
DNA 1: GCCAAACTAGGTCAAGAGGTCAAACTCCGCTTCCCGGCGATTGACAGCGTAGAATGAAGG
DNA 2: CCTTCATTCTACGCTGTCAATCGCCGGGAAGCGGAGTTTGACCTCTTGACCTAGTTTGGC
B17: NRC3_wobSeed99_DR4_A26T_o1 (dsDNA)
DNA 1: GCTCTCGGAGGACACGAAAGGTCAGTGCTCGACATCGCGATTGACAGCGTAGAATGAAGG
DNA 2: CCTTCATTCTACGCTGTCAATCGCGATGTCGAGCACTGACCTTTCGTGTCCTCCGAGAGC
B18: NRC3_wobSeed109_DR4_A16G_o1 (dsDNA)
DNA 1: GCCGTCCAAGGTCATGGGAGGTCAGTGAAGACAGATGCGATTGACAGCGTAGAATGAAGG
DNA 2: CCTTCATTCTACGCTGTCAATCGCATCTGTCTTCACTGACCTCCCATGACCTTGGACGGC
B19: NRC3_wobSeed63_DR2_G25T_o1 (dsDNA)
DNA 1: GCCGAACTAGGTCACCAGGACAGTTAAGAGGTTGGAGCGATTGACAGCGTAGAATGAAGG
DNA 2: CCTTCATTCTACGCTGTCAATCGCTCCAACCTCTTAACTGTCCTGGTGACCTAGTTCGGC
B20: NRC3_wobSeed121_DR5_A6C_o1 (dsDNA)
DNA 1: GCCAACCTAGGTCACCGGAAGGTCAAAGTCCGCATGGCGATTGACAGCGTAGAATGAAGG
DNA 2: CCTTCATTCTACGCTGTCAATCGCCATGCGGACTTTGACCTTCCGGTGACCTAGGTTGGC
B21: NRC3_wobSeed51_DR2_A12T_o1 (dsDNA)
DNA 1: GCCCTCGGAGGTCAGAAGGTCAGAGCTGTCCGCTTTGCGATTGACAGCGTAGAATGAAGG
DNA 2: CCTTCATTCTACGCTGTCAATCGCAAAGCGGACAGCTCTGACCTTCTGACCTCCGAGGGC
B22: NRC3_wobSeed25_DR1_G24C_o1 (dsDNA)
DNA 1: GCCAAACTAGGTCAAAGGTCAAACTCGAGCCAACCAGCGATTGACAGCGTAGAATGAAGG
DNA 2: CCTTCATTCTACGCTGTCAATCGCTGGTTGGCTCGAGTTTGACCTTTGACCTAGTTTGGC
B23: NRC3_wobSeed125_DR5_T24C_o1 (dsDNA)
DNA 1: GCCCTTACGGGTCACTGACAGGTCATAGCATTTGGAGCGATTGACAGCGTAGAATGAAGG
DNA 2: CCTTCATTCTACGCTGTCAATCGCTCCAAATGCTATGACCTGTCAGTGACCCGTAAGGGC
B24: NRC3_wobSeed133_DR5_A8G_o1 (dsDNA)
DNA 1: GCCGTCCGAGGTCAATGCTAGGTCAGTGAAAGCATTGCGATTGACAGCGTAGAATGAAGG
DNA 2: CCTTCATTCTACGCTGTCAATCGCAATGCTTTCACTGACCTAGCATTGACCTCGGACGGC
B25: NRC3_wobSeed61_DR2_G15C_o1 (dsDNA)
DNA 1: GCCGTCCAAGGTCACCAGGTCAGTGAAAGCGACGTGGCGATTGACAGCGTAGAATGAAGG
DNA 2: CCTTCATTCTACGCTGTCAATCGCCACGTCGCTTTCACTGACCTGGTGACCTTGGACGGC
B26: NRC3_wobSeed50_DR2_C25A_o1 (dsDNA)
DNA 1: GCCCTAGTTGGTCAGGAGGTCACAAACCGGATATGAGCGATTGACAGCGTAGAATGAAGG
DNA 2: CCTTCATTCTACGCTGTCAATCGCTCATATCCGGTTTGTGACCTCCTGACCAACTAGGGC
B27: NRC3_wobSeed138_DR5_G15A_o1 (dsDNA)
DNA 1: GCGATACAGGGTCAACTAGAGGCCAGAGTATGGAAAGCGATTGACAGCGTAGAATGAAGG
DNA 2: CCTTCATTCTACGCTGTCAATCGCTTTCCATACTCTGGCCTCTAGTTGACCCTGTATCGC
B28: NRC3_wobSeed138_DR5_C23G_o1 (dsDNA)
DNA 1: B27 DNA 1 with A15G, C23G
DNA 2: B27 DNA 2 with G38C, T46C
B29: NRC3_wobSeed98_DR4_G7A_o1 (dsDNA)
DNA 1: GCACTAATTGGTCAGCTGAGGTCACACACAATTCGGGCGATTGACAGCGTAGAATGAAGG
DNA 2: CCTTCATTCTACGCTGTCAATCGCCCGAATTGTGTGTGACCTCAGCTGACCAATTAGTGC
B30: NRC3_wobSeed46_DR1_A8G_o1 (dsDNA)
DNA 1: GCTTACCGAGGTGAAAGGTCGTTGATGCACGCCTTGGCGATTGACAGCGTAGAATGAAGG
DNA 2: CCTTCATTCTACGCTGTCAATCGCCAAGGCGTGCATCAACGACCTTTCACCTCGGTAAGC

RARg:RXRa, sequence (P13631 whole entry, chain 1 of 2): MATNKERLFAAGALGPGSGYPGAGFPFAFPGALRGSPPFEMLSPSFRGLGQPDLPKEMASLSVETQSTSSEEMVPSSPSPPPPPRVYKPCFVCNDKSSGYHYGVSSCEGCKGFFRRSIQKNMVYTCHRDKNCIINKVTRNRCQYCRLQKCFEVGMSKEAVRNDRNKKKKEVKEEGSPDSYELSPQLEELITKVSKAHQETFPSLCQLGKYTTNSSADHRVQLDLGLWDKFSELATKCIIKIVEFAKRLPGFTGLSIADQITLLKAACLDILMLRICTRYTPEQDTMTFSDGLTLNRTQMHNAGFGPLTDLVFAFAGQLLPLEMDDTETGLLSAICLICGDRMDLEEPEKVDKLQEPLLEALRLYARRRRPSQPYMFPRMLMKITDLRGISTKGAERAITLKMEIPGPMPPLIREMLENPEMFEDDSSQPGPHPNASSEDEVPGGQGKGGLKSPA
RARg:RXRa, sequence (P19793 whole entry, chain 2 of 2): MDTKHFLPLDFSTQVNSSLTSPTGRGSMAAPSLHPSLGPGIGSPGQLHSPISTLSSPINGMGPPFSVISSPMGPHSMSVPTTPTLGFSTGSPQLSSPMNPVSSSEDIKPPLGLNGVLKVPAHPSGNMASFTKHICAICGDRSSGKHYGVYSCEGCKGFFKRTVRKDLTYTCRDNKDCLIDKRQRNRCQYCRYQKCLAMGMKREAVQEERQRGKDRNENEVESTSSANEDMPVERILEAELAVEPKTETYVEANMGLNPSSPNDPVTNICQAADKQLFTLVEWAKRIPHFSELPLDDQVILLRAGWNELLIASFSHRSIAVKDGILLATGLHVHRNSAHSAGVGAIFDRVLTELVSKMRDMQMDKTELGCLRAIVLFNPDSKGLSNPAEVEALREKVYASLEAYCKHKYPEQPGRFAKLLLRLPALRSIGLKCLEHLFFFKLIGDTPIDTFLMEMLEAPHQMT
PPARa:RXRa, sequence (Q07869 whole entry, chain 1 of 2): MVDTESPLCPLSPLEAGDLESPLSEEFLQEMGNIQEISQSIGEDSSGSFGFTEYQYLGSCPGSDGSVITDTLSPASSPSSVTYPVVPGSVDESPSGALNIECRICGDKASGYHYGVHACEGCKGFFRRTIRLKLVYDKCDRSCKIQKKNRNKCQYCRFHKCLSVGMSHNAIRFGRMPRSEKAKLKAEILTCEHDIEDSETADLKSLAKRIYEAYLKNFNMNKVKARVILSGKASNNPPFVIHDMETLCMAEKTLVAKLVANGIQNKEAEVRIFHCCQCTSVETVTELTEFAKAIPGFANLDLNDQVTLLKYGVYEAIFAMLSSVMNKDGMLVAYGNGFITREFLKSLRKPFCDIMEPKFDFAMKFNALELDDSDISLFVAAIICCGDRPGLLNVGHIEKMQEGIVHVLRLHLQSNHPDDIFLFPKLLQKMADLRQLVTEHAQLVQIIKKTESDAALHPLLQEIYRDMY
PPARa:RXRa, sequence (P19793 whole entry, chain 2 of 2): as the sequence (P19793 whole entry, chain 2 of 2) above

The first data set deals with PPARa:RXRa (Homo sapiens, UniProt Q07869;P19793 full;full). The experiment in a line: no ligand; PBM; 270 nM : 90 nM RXRa; PBS pH 7.4, 2% milk, 0.02% Triton X-100, 1 mM DTT, BSA, 0.4 mg/ml salmon testes DNA. Particulars: tags: GST kept;His cleaved; copies: 1;1; label: surface-attached array probe. The procedure, abridged:
(§1)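 On custom Agilent 4×180K arrays, double-stranded probes with 34-nt variable regions carried direct-repeat seeds, single-nucleotide variants, half-site ablations or random human genomic background. Ligand-free nuclear receptor dimers were applied for 1 h, and binding was read with antibodies against each partner (one per run). Binding z-scores come from regression-normalized fluorescence, with the random background probes as reference.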
Regarding B1, the binding signal was -0.42 PBM z-score against 500 random probes.

As for B2, the binding signal was -0.47 PBM z-score against 500 random probes.

Take B3: the binding signal is -0.72 PBM z-score against 500 random probes.

B4: the binding signal is -0.37 PBM z-score against 500 random probes.

As for B5, the binding signal is -0.61 PBM z-score against 500 random probes.

On to B6, for which the binding signal is -1.18 PBM z-score against 500 random probes.

In the case of B7, the binding signal is -1.24 PBM z-score against 500 random probes.

Regarding B8, the binding signal was -0.67 PBM z-score against 500 random probes.

For a further data set, the target named is RARg:RXRa (Homo sapiens, UniProt P13631;P19793 full;full). Described as above. The note with it: tags: His kept;His cleaved; copies: 1;1; label: surface-attached array probe. The procedure, abridged:
as §1
Take B9: the binding signal is 7.46 PBM z-score against 500 random probes.

Regarding B10, the binding signal is 4.41 PBM z-score against 500 random probes.

Take B11: the binding signal is 7.73 PBM z-score against 500 random probes.

As to B12, the binding signal is 7.41 PBM z-score against 500 random probes.

B13: the binding signal was 7.99 PBM z-score against 500 random probes.

For the molecule B14, the binding signal was 4.58 PBM z-score against 500 random probes.

For the molecule B15, the binding signal is 7.66 PBM z-score against 500 random probes.

Turning to B16, the binding signal was 8.44 PBM z-score against 500 random probes.

Take B17: the binding signal is 4.39 PBM z-score against 500 random probes.

B18: the binding signal was 7.38 PBM z-score against 500 random probes.

For the molecule B19, the binding signal is 4.47 PBM z-score against 500 random probes.

Turning to B20, the binding signal is 8.94 PBM z-score against 500 random probes.

As to B21, the binding signal is 7.6 PBM z-score against 500 random probes.

On to B22, for which the binding signal was 9.32 PBM z-score against 500 random probes.

Regarding B23, the binding signal was 7.68 PBM z-score against 500 random probes.

For the molecule B24, the binding signal was 8.1 PBM z-score against 500 random probes.

Regarding B25, the binding signal is 7.32 PBM z-score against 500 random probes.

For B26, the binding signal was 4.55 PBM z-score against 500 random probes.

For B27, the binding signal is 7.73 PBM z-score against 500 random probes.

On to B28, for which the binding signal is 7.69 PBM z-score against 500 random probes.

With B29, the binding signal is 4.44 PBM z-score against 500 random probes.

Regarding B30, the binding signal is 4.52 PBM z-score against 500 random probes.

Source of the values: article PMC6555819, “Comprehensive study of nuclear receptor DNA binding provides a revised framework for understanding receptor specificity”.
